Data on 76 variants can be found in the RNAGym collection of RNA variant scans (doi:10.7554/elife.80360).

B1: Hairpin Ribozyme (parent)
chain: GUCCUCUUUCACGUGCGCGUGAAAGAGAGAAGUGAACCAGAGAAACACACGUUGUGGUAUAUUACCUGGUA

The series covers variants of B1. Put plainly: self-cleavage, relative activity (ratio to wild type); higher = more cleavage; co-transcriptional.
Turning to UUCCUCUUUCACGUGCGCGUGAAAGAGAGAAGUGAACCAGAGAAACACACGUUCUGGUAUAUUACCUGGUA, the self-cleavage stood at 0.176.

On to UUCCUCUUUCACGUGCGCGUGAAAGAGAGAAGUGAACCAGAGAAACACACGUUGUGGUGUAUUACCUGGUA, for which the self-cleavage amounted to 0.216.

As for UUCCUCUUUCACGUGCGCGUGAAAGAGAGAAGUGAACCAGAGACACACACGUUGUGGUAUAUUACCUGGUA, the self-cleavage was 0.0421.

For UUCCUCUUUCACGUGCGCGUGAAAGAGAGAAGUGAACCAGAGAAACUCACGUUGUGGUAUAUUACCUGGUA, the self-cleavage amounted to 0.0955.

In the case of UUCCUCUUUCACGUGCGCGUGAAAGAGAGAAGUGAACCAGAGAAACACACGUUGUGGUAUAUUACCUGAUA, the self-cleavage is 0.0764.

Consider GACCUCUUUCGCGUGCGCGUGAAAGAGAGAAGUGAACCAGAGAAACACACGUUGUGGUAUAUUACCUGGUA, for which the self-cleavage was 0.344.

UUCCUCUUUCACGUGCGCGAGAAAGAGAGAAGUGAACCAGAGAAACACACGUUGUGGUAUAUUACCUGGUA: the self-cleavage came to 0.1.

In the case of UUCCUCUUUCACGUGCGCGUGAAAGAGAGAAGUGAACCAGGGAAACACACGUUGUGGUAUAUUACCUGGUA, the self-cleavage came out at 0.0954.

As for UUCCUCUUUCACGUGCGCGUGAAAGAGAGAAGUGAACCAGAGAAACACACGUUGUGAUAUAUUACCUGGUA, the self-cleavage is 0.175.

For UUGCUCUUUCACGUGCGCGUGAAAGAGAGAAGUGAACCAGAGAAACACACGUUGUGGUAUAUUACCUGGUA, the self-cleavage was determined as 0.122.

Take UUACUCUUUCACGUGCGCGUGAAAGAGAGAAGUGAACCAGAGAAACACACGUUGUGGUAUAUUACCUGGUA: the self-cleavage is 0.161.

UGCCUCUUUCACGUGCGCGUGAAAGAGAGAAGUGAACCAGAGAAACACACGUUGUGGUAUAUUACCUGGUA: the self-cleavage is 0.22.

In the case of UUCCUCUUUCACGUGCGCGUAAAAGAGAGAAGUGAACCAGAGAAACACACGUUGUGGUAUAUUACCUGGUA, the self-cleavage amounted to 0.129.

UUCCUCUUUGACGUGCGCGUGAAAGAGAGAAGUGAACCAGAGAAACACACGUUGUGGUAUAUUACCUGGUA: the self-cleavage turned out to be 0.231.

On to GACCUCUUUCACGUGCGCGUGAAAGAGAGAAGUGAACCAGAGAUACACACGUUGUGGUAUAUUACCUGGUA, for which the self-cleavage is 0.0374.

For the variant GACCUCUUUCACGUGCGCGUGAAAGAGAGAAGUGAACCAGAGACACACACGUUGUGGUAUAUUACCUGGUA, the self-cleavage was determined as 0.0634.

With UUCGUCUUUCACGUGCGCGUGAAAGAGAGAAGUGAACCAGAGAAACACACGUUGUGGUAUAUUACCUGGUA, the self-cleavage is 0.213.

With UUCCUUUUUCACGUGCGCGUGAAAGAGAGAAGUGAACCAGAGAAACACACGUUGUGGUAUAUUACCUGGUA, the self-cleavage turned out to be 0.139.

For UUCCUCUGUCACGUGCGCGUGAAAGAGAGAAGUGAACCAGAGAAACACACGUUGUGGUAUAUUACCUGGUA, the self-cleavage was found to be 0.0482.

In the case of UUCCUCUAUCACGUGCGCGUGAAAGAGAGAAGUGAACCAGAGAAACACACGUUGUGGUAUAUUACCUGGUA, the self-cleavage came out at 0.144.

With UUCCUCUUGCACGUGCGCGUGAAAGAGAGAAGUGAACCAGAGAAACACACGUUGUGGUAUAUUACCUGGUA, the self-cleavage was 0.224.

On to UUCCUCUUCCACGUGCGCGUGAAAGAGAGAAGUGAACCAGAGAAACACACGUUGUGGUAUAUUACCUGGUA, for which the self-cleavage came to 0.0677.

On to UUCCUCUUUCACGUGCGCGUGAAAGAGAGAAGUGGACCAGAGAAACACACGUUGUGGUAUAUUACCUGGUA, for which the self-cleavage is 0.0705.

As to UUCCUCUUUCACGUGCGCGUGAAAGAGAGAAGUGCACCAGAGAAACACACGUUGUGGUAUAUUACCUGGUA, the self-cleavage was 0.0858.

With UUCCUCUUUCACGUGCGCGUGAAAGAGAGAAGUGAACCAGAGAAACACACGUUGUGGUAUCUUACCUGGUA, the self-cleavage stood at 0.0683.

Take UUCCUCUUUCACGUGCGCGUGAAAGAGAGAAGUGAACCAGAGAAACACACGUUGUGGUAUGUUACCUGGUA: the self-cleavage worked out at 0.041.

In the case of UUCCUCUUUCACGUGCGCGUGAAAGAGAGAAGUGAACCAGAGAAACACACGUUGUGGUAUUUUACCUGGUA, the self-cleavage stood at 0.116.

In the case of UUCCUCUUUCACGUGCGGGUGAAAGAGAGAAGUGAACCAGAGAAACACACGUUGUGGUAUAUUACCUGGUA, the self-cleavage is 0.131.

On to GACCUCUUUCACGUGCGCGUGAAAGAGAGUAGUGAACCAGAGAAACACACGUUGUGGUAUAUUACCUGGUA, for which the self-cleavage turned out to be 0.0131.

For the variant UUCCUCUUUCACGUGCGCGUGAAAGAGAGAAGUGAACCAGAGAAACACACGUUGUGGUAUAAUACCUGGUA, the self-cleavage was 0.147.

As to UUCCUCUUUCACGUGCGCGUGAAAGAGAGAAGUGAACCAGAGAAACACACGCUGUGGUAUAUUACCUGGUA, the self-cleavage came to 0.261.

Turning to UUCCUCUUUCACGUGCGCGUGAAAGAGAGAAGUGAACCAGAGAAACACACGUAGUGGUAUAUUACCUGGUA, the self-cleavage is 0.0738.

For GACCUCUUUCACGUGCGCGUGAAAGAGAGAAGUGAGCCAGAGAAACACACGUUGUGGUAUAUUACCUGGUA, the self-cleavage was found to be 0.194.

As for GACCUCUUUCACGUGCGCGUGAAAGAGAGAAGUGAUCCAGAGAAACACACGUUGUGGUAUAUUACCUGGUA, the self-cleavage worked out at 0.144.

For the variant GACCUCUUUCACGUGCGCGUGAAAGAGAGAAGUGAACCAGAGAACCACACGUUGUGGUAUAUUACCUGGUA, the self-cleavage is 0.154.

As to UUCCUCUUUCACGUGCGCGUGAAAGAGAGAAGUGAACCAGAGAAACACACAUUGUGGUAUAUUACCUGGUA, the self-cleavage was found to be 0.205.

Regarding UUCCUCUUUCACGUGCGCGUGAAAGAGAGAAGUGAACCAGAGAAACACACCUUGUGGUAUAUUACCUGGUA, the self-cleavage was determined as 0.175.

UUCCUCUUUCACGUGCGCGUGAAAGAGAGAAGUAAACCAGAGAAACACACGUUGUGGUAUAUUACCUGGUA: the self-cleavage was 0.143.

For the variant UUCCUCUUUCACGUGCGCGUGAAAGAGAGAAGUUAACCAGAGAAACACACGUUGUGGUAUAUUACCUGGUA, the self-cleavage is 0.19.

On to UUCCUCUUUCACGUGCGCGUGAAAGAGAGAAGUGAACCAGAGAAACACACGUUGUGGAAUAUUACCUGGUA, for which the self-cleavage is 0.0365.

On to UUCCUCUUUCACGCGCGCGUGAAAGAGAGAAGUGAACCAGAGAAACACACGUUGUGGUAUAUUACCUGGUA, for which the self-cleavage came to 0.128.

As for UUCCUCUUUCACGAGCGCGUGAAAGAGAGAAGUGAACCAGAGAAACACACGUUGUGGUAUAUUACCUGGUA, the self-cleavage was found to be 0.041.

As for UUCCUCUUUCACGUGCGCGUGAAAGAGAGAAGUGAACCAGAGAAACAAACGUUGUGGUAUAUUACCUGGUA, the self-cleavage came out at 0.134.

Consider UUCCACUUUCACGUGCGCGUGAAAGAGAGAAGUGAACCAGAGAAACACACGUUGUGGUAUAUUACCUGGUA, for which the self-cleavage came to 0.163.

As for UUCCUCGUUCACGUGCGCGUGAAAGAGAGAAGUGAACCAGAGAAACACACGUUGUGGUAUAUUACCUGGUA, the self-cleavage is 0.088.

Turning to UUCCUCAUUCACGUGCGCGUGAAAGAGAGAAGUGAACCAGAGAAACACACGUUGUGGUAUAUUACCUGGUA, the self-cleavage worked out at 0.131.

On to UUCCUCUUUCACGUGAGCGUGAAAGAGAGAAGUGAACCAGAGAAACACACGUUGUGGUAUAUUACCUGGUA, for which the self-cleavage is 0.111.

With UUCCUCUUUCACGUGCUCGUGAAAGAGAGAAGUGAACCAGAGAAACACACGUUGUGGUAUAUUACCUGGUA, the self-cleavage was 0.162.

For UUCCUCUUUCACGUGCGCGUGAAAGAGAGAAGUGAACCAGAGAAAAACACGUUGUGGUAUAUUACCUGGUA, the self-cleavage was found to be 0.106.

Regarding UUCCUCUUUCACGUGCGCGUGAAAGAGAGAAGUGAACCAGAGAAACACACGUUGUGGUAUAUUACCUGGCA, the self-cleavage was 0.142.

Turning to GACCUCUUUCACGUGCGCGUGAAAGAGAGACGUGAACCAGAGAAACACACGUUGUGGUAUAUUACCUGGUA, the self-cleavage came to 0.13.

For UUCCUCUUUCACGUACGCGUGAAAGAGAGAAGUGAACCAGAGAAACACACGUUGUGGUAUAUUACCUGGUA, the self-cleavage is 0.171.

Consider UUCCUCUUUCACGUGCGCGUGAAAGAGAGAAGUGAACCAGAGAAACACACGUUGUGGUAUAUUAGCUGGUA, for which the self-cleavage worked out at 0.236.

Consider UUCCUCUUUCACGUGCGCGUGAAAGAGAGAAGUGAACCAGAGAAACACACGUUGUGGUAUAUUAUCUGGUA, for which the self-cleavage came out at 0.0631.

UUCCUCUUUCACGUGCGCGUGAAAGAGAGAAGGGAACCAGAGAAACACACGUUGUGGUAUAUUACCUGGUA: the self-cleavage was 0.0782.

Consider UUCCUCUUUCACGUGCGCGUGAAAGAGAGAAGAGAACCAGAGAAACACACGUUGUGGUAUAUUACCUGGUA, for which the self-cleavage amounted to 0.123.

In the case of UUCCUCUUUCACGUGCGCGUGAAAGAGAGAAGUGAGCCAGAGAAACACACGUUGUGGUAUAUUACCUGGUA, the self-cleavage is 0.184.

For the variant UUCCUCUUUCACGUGCGCAUGAAAGAGAGAAGUGAACCAGAGAAACACACGUUGUGGUAUAUUACCUGGUA, the self-cleavage is 0.208.

In the case of UUCCUCUUUCACCUGCGCGUGAAAGAGAGAAGUGAACCAGAGAAACACACGUUGUGGUAUAUUACCUGGUA, the self-cleavage amounted to 0.151.

Take UUCCUCUUUCACUUGCGCGUGAAAGAGAGAAGUGAACCAGAGAAACACACGUUGUGGUAUAUUACCUGGUA: the self-cleavage came out at 0.156.

For UUCCUCUUUCACGUGCGCGUGAAAGAGAGAAGUGAACCACAGAAACACACGUUGUGGUAUAUUACCUGGUA, the self-cleavage amounted to 0.055.

Turning to UUCCUCUUUCACGUGCGCGUGAAAGAGAGAAGUGAACCGGAGAAACACACGUUGUGGUAUAUUACCUGGUA, the self-cleavage was 0.121.

As to UUCCUCUUUCACGUGCGCGUGAAAGAGAGAAGUGAACCAGAGAAACACACGUUGUGGUAGAUUACCUGGUA, the self-cleavage worked out at 0.259.

For the variant UUCCUCUUUCACGUGCGCGUGAAAGAGAGAAGUGAACCAGAGAAACACACGUUGUGGUAUAUUACCAGGUA, the self-cleavage was found to be 0.105.

On to UUCCUCUUUCACGUGCGCGUGAAAGAAAGAAGUGAACCAGAGAAACACACGUUGUGGUAUAUUACCUGGUA, for which the self-cleavage is 0.148.

For the variant GACCUCUUUCACGUGCGCGUGAAAGAGGGAAGUGAACCAGAGAAACACACGUUGUGGUAUAUUACCUGGUA, the self-cleavage was determined as 0.434.

In the case of UUCCUCUUUCACGUGCGCGUGAAAGAGAGAAGUGAACCAGAGAAACACAUGUUGUGGUAUAUUACCUGGUA, the self-cleavage turned out to be 0.0718.

On to UUCCUCUUUCACGUGCGCGUGAAAGAGAGAAGUGAACCAGAGAAACACACGUUGUGGUAUAUUACCUGGUC, for which the self-cleavage was determined as 0.273.

Consider UUCCUCUUUCACGUGCGCGUGAAAGAGAGAAGUGAACCAGAGAAACACACGUUGAGGUAUAUUACCUGGUA, for which the self-cleavage is 0.224.

Regarding UUCCUCUUUCACGUGCGCGUGAAAGAGAGAAGUGAACCAGAGAAACACACGUUGGGGUAUAUUACCUGGUA, the self-cleavage is 0.104.

Regarding GACCUCUUUCACGUGCGCGUGAAAGGGAGAAGUGAACCAGAGAAACACACGUUGUGGUAUAUUACCUGGUA, the self-cleavage is 0.321.

GACCUCUUUCACGUGCGCGUGAAUGAGAGAAGUGAACCAGAGAAACACACGUUGUGGUAUAUUACCUGGUA: the self-cleavage was 0.29.

On to GACCUCUUUCACGUGCGCGUGAAGGAGAGAAGUGAACCAGAGAAACACACGUUGUGGUAUAUUACCUGGUA, for which the self-cleavage is 0.286.

As for GACCUCUUUCACGUGCGCGUGAAAGAGAGAAGUGAACCAGAGUAACACACGUUGUGGUAUAUUACCUGGUA, the self-cleavage came to 0.0943.

As to UUCCUCUUUCACGUGCGCGUGAAAGAGAGAAGUGAACCAGAGAAACACACGUUGUUGUAUAUUACCUGGUA, the self-cleavage was found to be 0.0984.

As to GACCUCUUUCACGUGCGCGUGACAGAGAGAAGUGAACCAGAGAAACACACGUUGUGGUAUAUUACCUGGUA, the self-cleavage was determined as 0.262.
